Assay: label from the status in PepcDB records

| Sequence | protein production |
| --- | --- |
| MEGSIASRARLPRATQMAVATLDTNPRMRRPPREPAPPPSPLHQLVVTLATGKWLLLAVALLGGILAGLAGFTRPVLFEAATQIIIDAPSTGTANATATAQDSLDSSIDDHLTMLSSQAHLRRVLTALRQPQAADAAGKSGISAVPPTSGSFVGNLLSRVWSKGGPAAESPEAVDAAALKTLRSGMRVGQELRSRVITIGFTDTSPVRAALVANTFAQVYIEDLVQKRRASDQRELESLVASLPQVQRDLVDATDRLETYRLTHGAVDQSAANNAANETAELGRQIFLSKANLSASESRLRHIEDLRKAGAPVSAIAEEIGSPVLTDLVARQSGAAADGDLGTAINREIEQGIARIAAEANVYRAQVAALEDRKRVRDAAVADTASQLSGLRALEPQVTIVTQHYNELLGRQQDLIRRIAAPSPGVAVLSTAWPPSNPITLPRIFLVPPGMIVFGLMAAVFVLVRNMFNQTLRSEAEAEAELGIPCVGLLPKVSGLHARQLRHLVLVQQNSPFSRAATSLLVTAAPTQGKGQPPHMILVTSSILDDGKTELAWSLALAATRLGGRVLFLDLDRKDARLTNEFRGEFGTIKAHNSFGDYVSERCVLQDAITRMPEIGIDLMAAPGPSEDLLTLLSTVDKSQFTEELLSVYDVVIINGPLGLGGPETRLLKRWADAVLFAVRWAKTRRSIARGVLESLRAGGSVTVPIGSVLTQVNLKRYAGSRLDDNADLLLERV | failed |
| MGSIEEVLLEERLIGYLDPGAEKVLARINRPSKIVSTSSCTGRITLIEGEAHWLRNGARVAYKTHHPISRSEVERVLRRGFTNLWLKVTGPILHLRVEGWQCAKSLLEAARRNGFKHSGVISIAEDSRLVIEIMSSQSMSVPLVMEGARIVGDDALDMLIEKANTILVESRIGLDTFSREVEELVECF | not failed |
| MSSVSLQDFDAERIGLFHEDIKRKFDELKSKNLKLDLTRGKPSSEQLDFADELLALPGKGDFKAADGTDVRNYGGLDGIVDIRQIWADLLGVPVEQVLAGDASSLNIMFDVISWSYIFGNNDSVQPWSKEETVKWICPVPGYDRHFSITERFGFEMISVPMNEDGPDMDAVEELVKNPQVKGMWVVPVFSNPTGFTVTEDVAKRLSAMETAAPDFRVVWDNAYAVHTLTDEFPEVIDIVGLGEAAGNPNRFWAFTSTSKITLAGAGVSFFLTSAENRKWYTGHAGIRGIGPNKVNQLAHARYFGDAEGVRAVMRKHAASLAPKFNKVLEILDSRLAEYGVAQWTVPAGGYFISLDVVPGTASRVAELAKEAGIALTGAGSSYPLRQDPENKNLRLAPSLPPVEELEVAMDGVATCVLLAAAEHYAN | not failed |
| MRIRLFAFCLLLGGCQSQLPPLPDWQSPEGRDDPQTGRIVELRSGVTLSPQQLVARLAAAPRVIVGEKHDNPDHHAVELWLAQALGEYRAQGSLLLEMLDPGQQPRVDAVRAQLGNGKPVANLEEALDWQKGWDWTQYGPLVSWAVAQPAPLLAANLQRSEIMRIYRERPPLPGTASRRDSVRLPLLAQIRESHCGMLPDDQLPAMLAVQQQRDRRMAERLRDAPRPAMLVAGSFHARRDLGVPVHLRDLGAEKGTQVLMLVEAGQAVTTREADYAWYTPAQPDKDYCAEMKKARLEHHHHHH | failed |
| MFVGFLSGLIVMGALLSILLVLLGVMALRVFVRYILPILLILLIIRLIISGIVLLFNPHFWLFIAVVALVLWILGKIRN | failed |
| MRIFIAFEGSFEAFDVAAHTSVGAIKQMVKDYFHIPLSEDKQGRWYLELTYAGAALKNNWSLSDVGISFCSTLKCFVKKEDKPTLYVFNAVTQETMAIKENMSILDRKVSDLRMLVTLSCGFPVSVYCLRTPAGLEMYDCNTLKDYQTDIGTTLRLDVWDGWKEFLMGCLLGQKPKVQRYLSKEGPVLKYQKRVALYIAAFHGHTELTEWALKQGAQPHEAVGVHPCRAWCHEALHTDVSNCPIHAAAEAGQLLILKAFVNFSVLCLECKNAAGQSPLAIASKHQHKDCVLYLLSKIWSTVSFLKLSVPMRIYIKIKQWILRAQTRRCHKSQPSRARVSGAKVGDTVMVDGFTKPKMTSKSWYKAEDKSWHTAQSKLPPCKQQPSRKPIGSLPMSQHDTKKQIFTFPSLVDAKNFSEVQSYQQENQKKIAAPARKEKNIKNPYLPQVPLPPVSRVHYAHPQFYCTPPSGDCLLRSLFKSFSEHSGRTPRENAIYCLAVASAFKEKRWLQQLEIARVLAKRSISNLTVKGGPAKCENYPESVL | failed |
| MDRSERLIQLISEEGIDAFLIMNIENSARASSVYFSGFTGSFSIILISENTRLLITDSRYTVQAKQETDFEVREVKGGDFIDVLKKTVNDLKIKTIALEEERVSLSLFRRISSAFGDRKFIGIDDEVKQMRMVK | failed |
| MVSFRSRSNPAVVILGLGRFGMALGEELVHSGVEVMGIDTNPAVVDKASAILTYAAVADTTSEEALRQLAVNEASRVVIGIGSDMGASLLTASAVVEFNIPSIWAKALNNSHAKILKQIGVHHIIRPEQDTGRRIAHLMNGRVQEYAEFDRDYAIVKIAPPVSALGKKVCDFDRVQIIAVRPAGGMFRQSKPEMVLRSGDLILAAGNPDELERFGTLD | failed |
| MPSFDIVSEITLHEVRNAVENANRVLSTRYDFRGVEAVIELNEKNETIKITTESDFQLEQLIEILIGSCIKRGIEHSSLDIPAESEHHGKLYSKEIKLKQGIETEMAKKITKLVKDSKIKVQTQIQGEQVRVTGKSRDDLQAVIQLVKSAELGQPFQFNNFRD | not failed |
| MENTVQEARRYLSNAREILSEKAKKNGIYYNDIKYVKLAGRAAYSGVLVALDGLLGKKDTRKSVEWYQEKLGKVDKKALTAFNSAYKILHLSMAYDGIELVSVSKDGLKQAEALINWVETRTAAA | failed |
| NNLFVYCEIEDGIVADVSLELLTKGRSLANQLGCQLEAVVAGTGLKDIEKQILPYGVDKLHVFDGEGLYPYTSLPHTSILVNLFKEEQPQICLMGATVIGRDLGPRVSSALTSGLTADCTSLEIGDHEDKKEGKVYKNLLYQIRPAFGGNIVATIVNPEHRPQMATVREGVMKKAILAADYKGEVIHHDVKKYVADTDYVVKVIERHVEKAKNN | failed |
| MELAVHDATEDGAGYATAASSWVVVEPEFVVDVTDIRSFVQCPRLYYLNKLSGLPLKYPVTKGTIVHEVFGDLLRGRDLEASVAQRVDEAGLELGLLGRSRAEVEADVRDNASAIEGWLQQGRLTDEDEWRSEYTLVSERFGIKGRCDAIRRGMPVELKTGKNTNREPRFHDKVQAACYALMLDEHGVPADTGTLLYTKNAAVDRSEASGDLSPAKEFSIGRGFLEFVVRERNHLAALEASDGPPTGYEADAKCDYCFEQDTCMVVSGRLDQESKAGRIGDPVPAEERAYFDELYDAIEAERGAIHDEYRKLWEQSPDERAADDRAVVGLSPAEQTELPDGRWRLTATRPGSAASKIREGDRVLASDGDPVAGRAEMARVERLDADRVEVTTDEPVSLCRLDVYPSELSVDRMLTALHDAVLKSDQRRTDLLFDRASPRFEGGDHDLIPNNDAQNAAVNRALNAEDFALVHGPPGTGKTYTIATLVQAFVARGDRVLVSAFTNRAVDNALDALRQQGHEDIVRVGTETGVRADMQDLRLDRSGDPGERAAALRSAPVVAATTATCGSRILRELEFDVVLVDEASQLTEPDTLAAINRGARFVLVGDHEQLPPVVRSGGRLSKSLFERLHETYPEASVMLDQQYRMSQRIQAFSSREFYDGQLRPASSEVAGQRLTDVGVDPGGAVHGGVTFYDVPGTDDAHVDPAEADRVADVVTAYVDAGLDPGEIGVIAPFRAQVAEIGRRTPAGVAVDTVDRFQGSSKEVIVVSFVARGTLEGPIFEDHRRVNVALSRAKKSLVLVGDERALRSEPLYDRMIDWADMELEHHHHHH | failed |
| MFVWHEYENAAEAAQSLADAVADALQGALDEKGGAVLAVSGGRSPIAFFNALSQKDLDWKNVGITLADERIVPTNHADSNTGLVREYLLKNKAAAAVWIPMVEDGKTETELHPDAVVDYALKHYKQPDVLILGMGNDGHTASIFPKAPQFQTAIDGSAGVALVHTTPVTAPHERISMTLDAIAHTGHVFLAIQGEEKKAVFDQAAQGENREYPISLVLNHQGVNCHVFYAE | not failed |
| MFISDKSRPTDFYKDDHHNSSTTSTTRDMMIDVLTTTNESVDLQSHHHHNHHNHHLHQSQPQQQILLGESSGEDHEVKAPKKRAETWVQDETRSLIMFRRGMDGLFNTSKSNKHLWEQISSKMREKGFDRSPTMCTDKWRNLLKEFKKAKHHDRGNGSAKMSYYKEIEDILRERSKKVTPPQYNKSPNTPPTSAKVDSFMQFTDKGFDDTSISFGSVEANGRPALNLERRLDHDGHPLAITTAVDAVAANGVTPWNWRETPGNGDDSHGQPFGGRVITVKFGDYTRRIGVDGSAEAIKEVIRSAFGLRTRRAFWLEDEDQIIRCLDRDMPLGNYLLRLDDVCKTHLAGLAIRVCHYDESNQLPVHSEEKIFYTEEDYREFLARQGWSSLQVDGFRNIENMDDLQPGAVYRGVR | failed |
| MGIDELYKKEFGIVAGVDEAGRGCLAGPVVAAAVVLEKEIEGINDSKQLSPAKRERLLDEIMEKAAVGIGIASPEEIDLYNIFNATKLAMNRALENLSVKPSFVLVDGKGIELSVPGTCLVKGDQKSKLIGAASIVAKVFRDRLMSEFHRMYPQFSFHKHKGYATKEHLNEIRKNGVLPIHRLSFEPVLELLTDDLLREFFEKGLISENRFERILNLLGARKSVVFRKERTNHNLPLF | not failed |
| MMKMDLKKEVKEEFIRFQRNEKTESIVYERLASIEKDESNRKVLRLISAEEKAHYATLKKYTETDVAPDKLRIAKYYWLARILGITFAIKLMESSEENAHHDYAKYTDYPDLRQLANEEEVHEQKLIGLINEERLEYMGSVVLGLNDALVEFTGALAGFTLALSDSRLIALTGSITGIAAALSMASSEYLSTKSEGGETKHPIKAAIYTGIAYIITVVALVAPFILIENVLIALGVMLAMALVIIALFNYYYSVARGESFRKRFTEMAVLSFSVAGISFLIGYALKTFTGIDA | failed |
| MDTNNNIEKEILALVKQNPKVSLIEYENYFSQLKYNPNASKSDIAFFYAPNQVLCTTITAKYGALLKEILSQNKVGMHLAHSVDVRIEVAPKIQINAQSNINYKAIKTSVKDSYTFENFVVGSCNNTVYEIAKKVAQSDTPPYNPVLFYGGTGLGKTHILNAIGNHALEKHKKVVLVTSEDFLTDFLKHLDNKTMDSFKAKYRHCDFFLLDDAQFLQGKPKLEEEFFHTFNELHANSKQIVLISDRSPKNIAGLEDRLKSRFEWGITAKVMPPDLETKLSIVKQKCQLNQITLPEEVMEYIAQHISDNIRQMEGAIIKISVNANLMNASIDLNLAKTVLEDLQKDHAEGSSLENILLAVAQSLNLKSSEIKVSSRQKNVALARKLVVYFARLYTPNPTLSLAQFLDLKDHSSISKMYSGVKKMLEEEKSPFVLSLREEIKNRLNELNDKKTAFNSSE | failed |
| METRFVTPFHHLLVNNLVANITNFTIWFALTFYVYLETKSVFATGMIAGVYLVLTAACGIWFGSLVDHHRKKLAMAGSSLASLLLYALALAVLLLAPKGAIADVGRPWLWALIGLSMLGVIAGNIRTIALPTLVTLLIPEDRRDKANGLVGMVSGVGFLTTSVISGFLVAWGGMLAALTFALGFTVAALVHLLTVPVDEPRVEAEHGAPVAPRRIDLAGTIKVVAAVPGLFALILFATFNNFLGGIFMALLDAYGLSMVSVQAWGLLFGFLSVAFIISGLAISKTGLGKNPLRTLLLVNLISWAVCCVFPLKSSIVMLAMGCFVWMLLGPYAEAAEQTTLQKVVPFERQGRVFGFAQSVEQAASPLTAFLIGPLTQFIVIPFMTHGAGAAAIGDWFGRGPDRGMALVFTLAGVVGLIVTLLAFGSKAYRQLSAAYAQGEPAPAA | failed |

Reference: a protein production outcome set (Wang et al. 2014)
